Results from paper PMC5748972 (The Journal of Cell Biology, 2018).
Each block holds one molecule with its values, some of them ahead of it.

How the values were obtained:
[1] = target: FITC-conjugated 4-((N′-2-methylphenyl)ureido)-phenylacetyl-L-leucyl-L-aspartyl-L-valyl-L-prolyl-L-al; experiment: fluorescence polarisation
[2] = target: intact integrin α4β1 on the surface of Jurkat cells (human (endogenous in Jurkat)) (UniProt P13612); experiment: flow cytometry on cells
integrin α4β1 = integrin α4β1 (Homo sapiens, UniProt P05556+P13612); experiment: Summary statements across α4β1 preparations and cell types; type: binding; details: Jurkat, Thp1, KA4 cell surface
[3] = target: intact α4β1 on Jurkat cells (Homo sapiens, UniProt P05556+P13612); experiment: Fluorescent flow cytometry saturation binding of FITC-LDVP, Jurkat; details: basal
[4] = target: intact α4β1 on Thp1 cells (Homo sapiens, UniProt P05556+P13612); experiment: Fluorescent flow cytometry saturation binding of FITC-LDVP, Thp1; details: basal
intact α4β1 on KA4 cells = intact α4β1 on KA4 cells (Homo sapiens, UniProt P05556+P13612); experiment: Fluorescent flow cytometry saturation binding of FITC-LDVP, KA4; details: basal
[5] = target: intact integrin α4β1 on the surface of Jurkat cells (human (endogenous in Jurkat), UniProt P13612;P05556); experiment: flow cytometry on cells

Kd [1]: 5.2 nM
Molecule: integrin α4β1 headpiece with high-mannose N-glycans (from UniProt P05556 21-501) (complex)

Kd [2]: 13900 nM
Molecule: human MAdCAM D1D2 (mucosal addressin cell adhesion molecule, domains 1 and 2) (domain or fragment)

free energy of the BC state, range on three cell types (integrin α4β1): -3.2 to -2.5 kcal/mol
P^EO [3]: 1.1 ± 0.2%
P^EO [4]: 0.4 ± 0.1%
P^EO (intact α4β1 on KA4 cells): 1.4 ± 0.3%
Molecule: α4β1: integrin α4β1; intact receptor on the cell surface

Kd [5]: 1000 ± 190 nM
B1: alternatively spliced connecting segment III of human fibronectin (domain or fragment)
chain: DELPQLVTLPHPNLHGPEILDVPSTVQKTPFVTHPGYDTGNGIQLPGTSGQQPSVGQQMIFEEHGFRRTTPPTTATPIRHRPRPYPPNVGEEIQIGHIPREDVDYHLYPHG
